Assay results reported in patent US6884866B2, “Bulk drying and the effects of inducing bubble nucleation” (Avant Immunotherapeutics, Inc., priority 2001, dated 2005).

Experiment: Urokinase activity after foam drying and storage
Format: physicochemical
Procedure: (7) Freeze-dried samples of Urokinase were rehydrated with 2 ml of 40 wt % sucrose. The solutions were then transferred to 20 ml sterilized glass vials for future preservation by drying. Before drying, the vials were covered with gray slotted rubber stoppers. The vials were dried inside a vacuum chamber. The vials were sitting on the surface of a stainless steel shelf inside the chamber. The shelf temperature was controlled by circulating ethylene glycol/water antifreeze at a controlled temperature inside the shelf. Before the vacuum was applied the shelf temperature was decreased to 5° C. Then the hydrostatic pressure inside the chamber was decreased to 0.5 Torr. Under such conditions, the suspension boiled for 30 min. […] Visually, under these experimental conditions, stable dry foams were formed inside the vials within 3 hours. After an additional 12 hours of drying at room temperature, the temperature was increased to 45° C. and maintained for an additional 24 hours. After that the chamber was filled with dry N2 gas, the rubber stoppers were pushed down and the vials were sealed with aluminum crimp seals.
The samples were assayed immediately after drying and after 30 days of storage at 40° C. After drying the Urokinase, activity was 93% of the initial activity. […]

Urokinase
Urokinase activity, % of the initial activity (after 30 days of storage at 40° C.): 90%
Urokinase activity, % of the initial activity (immediately after drying (40 wt % sucrose, maximum 45° C.)): 93%
